Columns and labels:
[1] = target: T1, human EMR2 (ADGRE2, CD312) on cells (human, UniProt Q9UHX3 24-823); assay: cell-based or functional assay
T1 sequence: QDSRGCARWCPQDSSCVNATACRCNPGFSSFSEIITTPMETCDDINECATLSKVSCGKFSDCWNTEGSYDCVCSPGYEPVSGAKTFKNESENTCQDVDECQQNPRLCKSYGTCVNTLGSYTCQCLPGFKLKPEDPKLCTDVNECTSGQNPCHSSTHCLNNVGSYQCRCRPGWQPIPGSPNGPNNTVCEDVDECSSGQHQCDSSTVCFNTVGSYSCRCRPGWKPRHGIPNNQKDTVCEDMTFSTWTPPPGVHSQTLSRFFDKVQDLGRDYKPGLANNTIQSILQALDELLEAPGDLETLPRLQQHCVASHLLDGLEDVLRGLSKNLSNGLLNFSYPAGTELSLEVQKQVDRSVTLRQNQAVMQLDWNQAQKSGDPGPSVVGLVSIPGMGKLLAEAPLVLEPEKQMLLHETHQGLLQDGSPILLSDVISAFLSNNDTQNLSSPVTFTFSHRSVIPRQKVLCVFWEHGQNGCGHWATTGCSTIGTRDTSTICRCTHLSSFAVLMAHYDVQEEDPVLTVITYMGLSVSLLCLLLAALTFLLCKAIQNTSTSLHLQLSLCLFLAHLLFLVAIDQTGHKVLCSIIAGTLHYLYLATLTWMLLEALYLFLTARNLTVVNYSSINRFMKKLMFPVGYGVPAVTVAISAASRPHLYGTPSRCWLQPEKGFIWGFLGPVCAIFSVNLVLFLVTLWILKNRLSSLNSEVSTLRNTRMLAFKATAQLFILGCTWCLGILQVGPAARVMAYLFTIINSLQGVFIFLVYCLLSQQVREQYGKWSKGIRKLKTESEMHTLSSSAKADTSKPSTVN

[2] = target: T2, T-cell receptor with TRBV19 (Vβ17) beta chain on human T cells (human); assay: cell-based or functional assay
FcRn (cyno) = target: T3, FcRn (cyno) (cynomolgus monkey, UniProt Q8SPV9 24-297; Q8SPW0 21-119); assay: FcRn binding (cyno, pH 6)
T3 construct: also called neonatal Fc receptor, cynomolgus monkey

[3] = target: T4, EMR2W4, huEMR2 GAIN domain + GPS, D261-T540, with C-terminal Avi/6x His tag (human); assay: SPR protein binding (human), binding to EMR2W4
T4 construct: also called Human EMR2 GAIN domain protein
T4 chain: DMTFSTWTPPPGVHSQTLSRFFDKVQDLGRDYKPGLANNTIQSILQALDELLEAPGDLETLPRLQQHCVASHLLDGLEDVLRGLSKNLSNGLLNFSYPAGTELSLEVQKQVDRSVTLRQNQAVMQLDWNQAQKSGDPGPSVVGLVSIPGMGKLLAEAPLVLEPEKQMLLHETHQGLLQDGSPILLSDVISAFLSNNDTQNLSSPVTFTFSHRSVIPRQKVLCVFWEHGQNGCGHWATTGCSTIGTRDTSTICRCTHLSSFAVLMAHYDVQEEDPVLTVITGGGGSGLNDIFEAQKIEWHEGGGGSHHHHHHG

[4] = target: T4, EMR2W4, huEMR2 GAIN domain + GPS, …; assay: SPR, EMR2 arm, forced degradation study: pH 8.5
[5] = target: T4, EMR2W4, huEMR2 GAIN domain + GPS, …; assay: SPR, EMR2 arm, forced degradation study: Physiological
[6] = target: T1, human EMR2 (ADGRE2, CD312) on cells; assay: flow cytometry, OCI-AML5 cells, 1 hour at 37 °C; mean ± SEM
Procedure: After secondary detection with AF647-labeled material, the MFI signal was analyzed to generate an EC50 value. Curves are representative of 3 independent experiments.

[7] = target: T2, T-cell receptor with TRBV19 (Vβ17) beta …; assay: flow cytometry, percent TRBV19+ of live pan-T cells, Donor 4, 1 hour, 37 °C
[8] = target: T2, T-cell receptor with TRBV19 (Vβ17) beta …; assay: flow cytometry, percent TRBV19+ of live pan-T cells, Donor 5, 1 hour, 37 °C
[9] = target: T1, human EMR2 (ADGRE2, CD312) on cells; assay: flow cytometry, median AF647 of live cells, OCI-AML5 WT cells, 1 hour at 37 C

T2 sequence (A0A075B6N1 22-114): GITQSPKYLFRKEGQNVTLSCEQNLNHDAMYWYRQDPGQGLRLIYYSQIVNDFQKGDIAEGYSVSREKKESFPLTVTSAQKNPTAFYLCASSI
T3 sequence (Q8SPV9 24-297 limits assumed, chain 1 of 2): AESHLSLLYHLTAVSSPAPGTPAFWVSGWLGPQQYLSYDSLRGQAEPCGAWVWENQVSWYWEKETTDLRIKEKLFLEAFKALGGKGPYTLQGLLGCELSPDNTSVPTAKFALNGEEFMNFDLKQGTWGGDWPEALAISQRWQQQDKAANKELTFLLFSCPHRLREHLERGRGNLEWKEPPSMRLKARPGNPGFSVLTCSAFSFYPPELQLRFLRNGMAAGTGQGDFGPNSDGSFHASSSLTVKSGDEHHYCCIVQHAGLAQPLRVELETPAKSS
T3 sequence (Q8SPW0 21-119 limits assumed, chain 2 of 2): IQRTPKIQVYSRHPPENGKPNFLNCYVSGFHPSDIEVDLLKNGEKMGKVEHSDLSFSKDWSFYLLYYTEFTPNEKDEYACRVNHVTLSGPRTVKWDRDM

B1: EMVBB8 (EMR2 x TRBV19 bispecific antibody) (bispecific antibody, human IgG1, kappa, L234A L235A)
heavy 1: DIQMTQSPSSLSASVGDRVTITCRSSQSLVHSNRNTYLHWYQQKPGCAPKLLIYKVSNRFSGVPSRFSGSGSGTDFTLTISSLQPEDFATYYCSQSTHVPFTFGQGTKLEIKGGGSGGSGGCPPCGGSGGQVQLQESGPGLVKPSETLSLTCTVSGYSITSGYFWNWIRQFPGKGLEWMGYISYDGSNNYNPSLKSRITISRDTSKNQFSLKLSSVTAADTAVYYCASPSPGTGYAVDYWGCGTTVTVSSEPKSSDKTHTCPPCPAPEAAGGPSVFLFPPKPKDTLMISRTPEVTCVVVSVSHEDPEVKFNWYVDGVEVHNAKTKPREEQYNSTYRVVSVLTVLHQDWLNGKEYKCKVSNKALPAPIEKTISKAKGQPREPQVYTLPPSREEMTKNQVSLWCLVKGFYPSDIAVEWESNGQPENNYKTTPPVLDSDGSFFLYSKLTVDKSRWQQGNVFSCSVMHEALHNHYTQKSLSLSPGK
heavy 2: EVQLVESGGGLVQPGGSLRLSCTASGFTFSRYSMNWVRQAPGEGLEWVSYISSSSNTIYYADSVKGRFTISRDNAKNSLYLQMNSLRDEDTAVYYCARDQGTPFDYWGQGTLVTVSSASTKGPSVFPLAPSSKSTSGGTAALGCLVKDYFPEPVTVSWNSGALTSGVHTFPAVLQSSGLYSLSSVVTVPSSSLGTQTYICNVNHKPSNTKVDKKVEPKSCDKTHTCPPCPAPEAAGGPSVFLFPPKPKDTLMISRTPEVTCVVVSVSHEDPEVKFNWYVDGVEVHNAKTKPREEQYNSTYRVVSVLTVLHQDWLNGKEYKCKVSNKALPAPIEKTISKAKGQPREPQVYTLPPSREEMTKNQVSLSCAVKGFYPSDIAVEWESNGQPENNYKTTPPVLDSDGSFFLVSKLTVDKSRWQQGNVFSCSVMHEALHNRFTQKSLSLSPGK
light: EIVLTQSPSSVSASIGDRVTITCRASQDISSWLGWYQQKPGKAPKLLIYAAISLQSGVPSRFSGSESGTDFTLTISSLQPEDFATYYCHQANSFPLTFGGGTKVEIKRTVAAPSVFIFPPSDEQLKSGTASVVCLLNNFYPREAKVQWKVDNALQSGNSQESVTEQDSKDSTYSLSSTLTLSKADYEKHKVYACEVTHQGLSSPVTKSFNRGEC
notes: also called the bispecific antibody
B1 was tested, and the “Cytotoxicity, EC50 (nM), 24 hours, PBMC + OCI-AML3 (Table 10)” value [1] was 0.02 nM, the “Cytotoxicity, EC50 (nM), 48 hours, PBMC + OCI-AML3 (Table 10)” value [1] was 0.01 nM and the “Cytotoxicity, EC50 (nM), 72 hours, PBMC + OCI-AML3 (Table 10)” value [1] was 0.004 nM. The “Cytotoxicity, EC50 (nM), 96 hours, PBMC + OCI-AML3 (Table 10)” value [1] was 0.003 nM, the “Cytotoxicity, EC50 (nM), 120 hours, PBMC + OCI-AML3 (Table 10)” value [1] was 0.004 nM and the “Pan-T-cell activation (CD25), EC50 (nM), 24 hours, PBMC + OCI-AML3 (Table 10)” value [2] was 0.02 nM. For the same binder, the “Pan-T-cell activation (CD25), EC50 (nM), 48 hours, PBMC + OCI-AML3 (Table 10)” value [2] was 0.01 nM, the “Pan-T-cell activation (CD25), EC50 (nM), 72 hours, PBMC + OCI-AML3 (Table 10)” value [2] was 0.01 nM and the “Pan-T-cell activation (CD25), EC50 (nM), 96 hours, PBMC + OCI-AML3 (Table 10)” value [2] was 0.01 nM. For the same binder, the “Pan-T-cell activation (CD25), EC50 (nM), 120 hours, PBMC + OCI-AML3 (Table 10)” value [2] was 0.01 nM, the Kd (FcRn (cyno)) was 454 nM and the Kd [3] was 0.193 nM. For the same binder, the Kd [4] was 0.25 nM, the Kd [5] was 0.21 nM and the EC50 [6] was 27 nM. The EC50 [7] was 10.6 nM, the EC50 [8] was 9.5 nM and the EC50 [9] was 13.4 nM. For the same binder, the “Max (MFI)” value [9] was 260000 MFI.
